From patent US20260151494A1 (ARO BIOTHERAPEUTICS, published 2026)
Changes are numbered by the printed parent chain.

B1: CD71-binding FN3 domain SEQ ID NO: 241 (designed binder)
chain: MSLPAPKNLVVSRVTEDSARLSWTAPDAAFDSFMIAYDEFIVWGEAVVLTVPGSERSYDLTGLKPGTEYLVEILGVKGGTISGPLSAIFTT
B2: CD71-binding FN3 domain SEQ ID NO: 310 (designed binder)
chain: MSLPAPKNLVVSRVTEDSARLSWTAPDAAFDSFEIDYGEYSQAGEAIGLLVPGSERSYDLTGLKPGTEYAVWIGGVKGGFFSTPLEADFTT
B3: CD71-binding FN3 domain SEQ ID NO: 273 (designed binder)
chain: MLPAPKNLVVSRVTEDSARLSWTAPDAAFDSFEISYWEHTFNGEAIILFVPGSERSYDLTGLKPGTEYYVTIGGVKGGAWSPPLWAEFTT
B4: CD71-binding FN3 domain SEQ ID NO: 314 (designed binder)
chain: MGSLPAPKNLVVSRVTEDSARLSWTAPDAAFDSFEIGYFENLYLGEAIVLTVPGSERSYDLTGLKPGTEYWVQIGGVKGGNWSAPLSAIFTT
B5: CD71-binding FN3 domain SEQ ID NO: 303 (designed binder)
chain: MSLPAPKNLVVSRVTEDSARLSWTAPDAAFDSFWIEYWEGWKSGEAIVLTVPGSERSYDLTGLKPGTEYRVHIWGVKGGIVSWPLSAIFTT
B6: CD71-binding FN3 domain SEQ ID NO: 240 (designed binder)
chain: MSLPAPKNLVVSRVTEDSARLSWTAPDAAFDSFHIWYFEKANEGEAIPLVVPGSERSYDLTGLKPGTEYDVDIGGVKGGAWSIPLGARFTT
B7: CD71-binding FN3 domain SEQ ID NO: 332 (designed binder)
chain: MSLPAPKNLVVSRVTEDSARLSWTAPDAAFDSFEIGYWEGPGGGEAIILVVPGSERSYDLTGLKPGTEYYVQIGGVKGGDWSTPLWATFTT
B8: CD71-binding FN3 domain SEQ ID NO: 245 (designed binder)
chain: B7 chain with G36S, G40H, P41T, G42F, G43N, V50F, Q72T, D80A, T83P, T88H
B9: CD71-binding FN3 domain SEQ ID NO: 267 (designed binder)
chain: B7 chain with G36S, G40H, P41T, G42F, G43N, V50F, Q72T, D80A, T83P, T88E
B10: CD71-binding FN3 domain SEQ ID NO: 290 (designed binder)
chain: MSLPAPKNLVVSRVTEDSARLSWTAPDAAFDSFFIGYLEPQPPGEAIHLYVPGSERSYDLTGLKPGTEYNVTIQGVKGGFPSEPLVATFTT
B11: CD71-binding FN3 domain SEQ ID NO: 331 (designed binder)
chain: B10 chain with G78V, V86I, T88N
B12: CD71-binding FN3 domain SEQ ID NO: 265 (designed binder)
chain: B10 chain with H48S, E83D, T88H
B13: CD71-binding FN3 domain SEQ ID NO: 264 (designed binder)
chain: B10 chain with H48A, A87V, T88H
B14: CD71-binding FN3 domain SEQ ID NO: 294 (designed binder)
chain: B10 chain with P43L, Y50F, V86I, T88S
B15: CD71-binding FN3 domain SEQ ID NO: 281 (designed binder)
chain: B10 chain with H48A, V86I, T88N
B16: CD71-binding FN3 domain SEQ ID NO: 279 (designed binder)
chain: B10 chain with F80N, P81W, E83A, V86S, T88I
B17: CD71-binding FN3 domain SEQ ID NO: 243 (designed binder)
chain: B10 chain with F80E, P81W, E83A, V86S, T88I
B18: CD71-binding FN3 domain SEQ ID NO: 295 (designed binder)
chain: B10 chain with H48D
B19: CD71-binding FN3 domain SEQ ID NO: 266 (designed binder)
chain: B10 chain with H48Y, Y50L, E83L
B20: CD71-binding FN3 domain SEQ ID NO: 293 (designed binder)
chain: B10 chain with H48D, E83H
B21: CD71-binding FN3 domain SEQ ID NO: 262 (designed binder)
chain: B10 chain with A46V, Y50F, E83D, T88S
B22: CD71-binding FN3 domain SEQ ID NO: 333 (designed binder)
chain: B10 chain with K7E, H48A, E83L
B23: CD71-binding FN3 domain SEQ ID NO: 258 (designed binder)
chain: B10 chain with H48V, Y50G, E83D, T88S
B24: CD71-binding FN3 domain SEQ ID NO: 270 (designed binder)
chain: B10 chain with V86I, T88N, F89S
B25: CD71-binding FN3 domain SEQ ID NO: 234 (designed binder)
chain: B10 chain with H48A, T88H
B26: CD71-binding FN3 domain SEQ ID NO: 253 (designed binder)
chain: MSLPAPKNLVVSRVTEDSARLSWTAPDAAFDSFDINYWENESGGEAIALFVPGSERSYDLTGLKPGTEYWVSIGGVKGGRFSEPLYARFTT
B27: CD71-binding FN3 domain SEQ ID NO: 319 (designed binder)
chain: MSLPAPKNLVVSRVTEDSARLSWTAPGAAFDSFEIGYFENLYLGEAIVLTVPGSERSYDLTGLKPGTEYWVQIGGVKGGVWSVPLSAIFTT
B28: CD71-binding FN3 domain SEQ ID NO: 322 (designed binder)
chain: B27 chain with G27D, N40I, L41T, Y42R, L43Y, V48I, T50F, V80N, V83A
B29: CD71-binding FN3 domain SEQ ID NO: 323 (designed binder)
chain: B27 chain with G27D, V80N, V83G
B30: CD71-binding FN3 domain SEQ ID NO: 330 (designed binder)
chain: B27 chain with G27D, V80N, V83A, F89V
B31: CD71-binding FN3 domain SEQ ID NO: 320 (designed binder)
chain: B27 chain with A5V, G27D, F38W, L41A, L43K, V80N, V83A
B32: CD71-binding FN3 domain SEQ ID NO: 329 (designed binder)
chain: B27 chain with G27D, E34D, N40A, L41T, L43Y, W70R, Q72W, V80Y, W81Y, V83N
B33: CD71-binding FN3 domain SEQ ID NO: 324 (designed binder)
chain: B27 chain with V14I, G27D, V80N, V83A, F89S
B34: CD71-binding FN3 domain SEQ ID NO: 328 (designed binder)
chain: B27 chain with G27D, E39G, V80N, V83A
B35: CD71-binding FN3 domain SEQ ID NO: 325 (designed binder)
chain: B27 chain with G27D, V80N, V83A, A87E
B36: CD71-binding FN3 domain SEQ ID NO: 327 (designed binder)
chain: B27 chain with G27D, F38W, L41A, L43K, V80N, V83A
B37: CD71-binding FN3 domain SEQ ID NO: 326 (designed binder)
chain: B27 chain with G27D, F38W, L41A, L43K, V83T
B38: CD71-binding FN3 domain SEQ ID NO: 259 (designed binder)
chain: MSLPAPKNLVVSRVTEDSARLSWTAPDAAFDSFYIAYAEPRPDGEAILLEVPGSERSYDLTGLKPGTEYSVLIHGVKGGLLSSPLSATFTT
B39: CD71-binding FN3 domain SEQ ID NO: 261 (designed binder)
chain: B38 chain with E50W, S86H, T88Y
B40: CD71-binding FN3 domain of SEQ ID NO: 347 (designed binder)
chain: MLPAPKNLVVSRVTEDSARLSWTAPDAAFDSFFIGYLEPQPPGEAIGLFVPGSERSYDLTGLKPGTEYNVTIQGVKGGFPSEPLKAAFTT
B41: CD71-binding FN3 domain of SEQ ID NO: 445 (designed binder)
chain: B40 chain with G47H, E82D, K85V, A87S
B42: CD71-binding FN3 domain of SEQ ID NO: 469 (designed binder)
chain: B40 chain with G47H, F49Y, E82L, K85V, A87T
B43: CD71-binding FN3 domain of SEQ ID NO: 491 (designed binder)
chain: B40 chain with P42S, G47H, F49I, E82D, K85V, A87S
B44: CD71-binding FN3 domain of SEQ ID NO: 479 (designed binder)
chain: B40 chain with G47N, F49W, E82T, K85F, A87G
B45: CD71-binding FN3 domain of SEQ ID NO: 410 (designed binder)
chain: B40 chain with G47A, F49W, E82Q, K85H, A87H
B46: CD71-binding FN3 domain of SEQ ID NO: 370 (designed binder)
chain: MLPAPKNLVVSRVTEDSARLSWTAPDAAFDSFYIAYAEPRPDGEAIVLVVPGSERSYDLTGLKPGTEYSVLIHGVKGGLLSSPLSAHFTT

target: T1, human CD71 extracellular domain (CD71-ECD) (human, UniProt P02786 89-760); assay: primary ELISA, RLU ratio to HSA
T1 construct: also called hCD71; human CD71-ECD
T1 sequence (P02786 89-760): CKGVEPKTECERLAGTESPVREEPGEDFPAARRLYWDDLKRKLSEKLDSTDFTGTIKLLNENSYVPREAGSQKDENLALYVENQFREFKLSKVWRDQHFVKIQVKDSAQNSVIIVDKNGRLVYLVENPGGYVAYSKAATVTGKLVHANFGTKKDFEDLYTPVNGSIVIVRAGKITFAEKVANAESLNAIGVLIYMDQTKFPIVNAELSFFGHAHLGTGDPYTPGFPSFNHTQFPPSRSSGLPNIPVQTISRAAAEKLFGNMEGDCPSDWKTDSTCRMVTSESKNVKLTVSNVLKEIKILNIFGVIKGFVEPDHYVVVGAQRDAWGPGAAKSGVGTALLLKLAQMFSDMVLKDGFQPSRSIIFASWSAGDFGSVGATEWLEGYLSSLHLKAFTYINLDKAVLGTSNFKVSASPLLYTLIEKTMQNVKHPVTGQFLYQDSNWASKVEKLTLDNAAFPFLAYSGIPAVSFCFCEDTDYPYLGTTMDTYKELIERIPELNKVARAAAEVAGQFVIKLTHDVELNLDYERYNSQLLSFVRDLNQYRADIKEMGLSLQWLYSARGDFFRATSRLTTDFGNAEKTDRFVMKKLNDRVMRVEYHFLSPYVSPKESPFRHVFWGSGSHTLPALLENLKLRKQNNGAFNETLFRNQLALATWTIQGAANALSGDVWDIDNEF

Point of comparison: B10, “hCD71:HSA” value 138. Against it:
- B1 — higher, 178
- B2 — lower, 77
- B3 — higher, 664
- B4 — higher, 256
- B5 — higher, 212
- B6 — lower, 39
- B7 — lower, 131
- B8 — higher, 377
- B9 — lower, 92
- B11 — higher, 524
- B12 — higher, 409
- B13 — higher, 508
- B14 — higher, 215
- B15 — higher, 380
- B16 — higher, 449
- B17 — higher, 355
- B18 — higher, 438
- B19 — higher, 150
- B20 — higher, 561
- B21 — higher, 529
- B22 — higher, 146
- B23 — higher, 212
- B24 — lower, 65
- B25 — higher, 683
- B26 — higher, 324
- B27 — lower, 137
- B28 — higher, 171
- B29 — lower, 62
- B30 — lower, 54
- B31 — higher, 172
- B32 — lower, 90
- B33 — higher, 294
- B34 — lower, 25
- B35 — lower, 114
- B36 — higher, 143
- B37 — lower, 79
- B38 — higher, 300
- B39 — higher, 535

target: T1, human CD71 extracellular domain …; assay: primary ELISA; further: test concentration or dose not given here

Point of comparison: B35, RLU 2.43e+06 RLU. Against it:
- B1 — higher, 3.4e+06 RLU
- B2 — lower, 2.22e+06 RLU
- B3 — higher, 3.78e+06 RLU
- B4 — higher, 3.15e+06 RLU
- B5 — lower, 1.86e+06 RLU
- B6 — higher, 3.72e+06 RLU
- B7 — lower, 1.7e+06 RLU
- B8 — higher, 3.75e+06 RLU
- B9 — higher, 3.12e+06 RLU
- B10 — higher, 5.98e+06 RLU
- B11 — higher, 4.66e+06 RLU
- B12 — higher, 5.66e+06 RLU
- B13 — higher, 5.77e+06 RLU
- B14 — higher, 6.48e+06 RLU
- B15 — higher, 6.37e+06 RLU
- B16 — higher, 3.66e+06 RLU
- B17 — higher, 2.78e+06 RLU
- B18 — higher, 6.2e+06 RLU
- B19 — higher, 5.41e+06 RLU
- B20 — higher, 6.23e+06 RLU
- B21 — higher, 6.78e+06 RLU
- B22 — higher, 5.32e+06 RLU
- B23 — higher, 4.77e+06 RLU
- B24 — higher, 5.5e+06 RLU
- B25 — higher, 6.42e+06 RLU
- B26 — higher, 3.53e+06 RLU
- B27 — higher, 3.35e+06 RLU
- B28 — higher, 3.38e+06 RLU
- B29 — higher, 2.75e+06 RLU
- B30 — higher, 2.54e+06 RLU
- B31 — lower, 2.36e+06 RLU
- B32 — higher, 3.28e+06 RLU
- B33 — higher, 3.13e+06 RLU
- B34 — lower, 2.18e+06 RLU
- B36 — higher, 2.66e+06 RLU
- B37 — lower, 1.5e+06 RLU
- B38 — higher, 3.77e+06 RLU
- B39 — higher, 3.43e+06 RLU

target: human CD71 on cells (SKBR3; SW620-rLuc-KRAS) (human, UniProt P02786 1-760); assay: cell-based or functional assay
Sequence (P02786 whole entry): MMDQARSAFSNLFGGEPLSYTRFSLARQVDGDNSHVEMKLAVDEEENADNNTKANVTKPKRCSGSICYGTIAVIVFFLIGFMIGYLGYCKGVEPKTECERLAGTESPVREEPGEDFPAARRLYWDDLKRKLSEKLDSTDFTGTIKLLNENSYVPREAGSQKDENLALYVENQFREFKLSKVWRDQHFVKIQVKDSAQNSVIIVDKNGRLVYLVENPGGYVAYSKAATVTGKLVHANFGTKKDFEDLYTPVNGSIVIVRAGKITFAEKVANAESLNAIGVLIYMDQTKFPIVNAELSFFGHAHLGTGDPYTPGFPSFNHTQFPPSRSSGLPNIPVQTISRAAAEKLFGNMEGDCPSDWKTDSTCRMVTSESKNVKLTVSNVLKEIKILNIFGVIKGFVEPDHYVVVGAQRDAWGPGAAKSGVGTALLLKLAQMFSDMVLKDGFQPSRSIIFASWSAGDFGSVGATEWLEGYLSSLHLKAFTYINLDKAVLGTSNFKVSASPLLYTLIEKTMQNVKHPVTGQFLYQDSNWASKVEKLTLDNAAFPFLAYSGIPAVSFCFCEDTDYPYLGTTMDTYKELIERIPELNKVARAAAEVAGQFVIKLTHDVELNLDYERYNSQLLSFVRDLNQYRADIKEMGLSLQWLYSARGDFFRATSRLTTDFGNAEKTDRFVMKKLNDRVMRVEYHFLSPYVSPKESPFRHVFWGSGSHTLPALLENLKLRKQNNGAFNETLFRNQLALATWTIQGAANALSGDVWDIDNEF

Point of comparison: B45, “CTG EC50 (CellTiter-Glo luminescent assay, SKBR3 cells, 72 h)” value 5.8 nM. Against it:
- B40 — 9.2-fold higher, 53.4 nM
- B41 — 14-fold lower, 0.4 nM
- B42 — 29-fold lower, 0.2 nM
- B43 — 1.8-fold lower, 3.2 nM
- B44 — 5.3-fold higher, 30.6 nM
- B46 — 1.9-fold higher, 10.9 nM
